Test results from US20090099074A1, “MODULATING FOOD INTAKE” (CONJUCHEM BIOTECHNOLOGIES INC., priority 2007, published 2009).

Target: NPY Y1 receptor
Test: in vitro NPY Y1 receptor binding assay; tracer and cells not stated

NPY Y1 receptor, sequence (P25929 whole entry): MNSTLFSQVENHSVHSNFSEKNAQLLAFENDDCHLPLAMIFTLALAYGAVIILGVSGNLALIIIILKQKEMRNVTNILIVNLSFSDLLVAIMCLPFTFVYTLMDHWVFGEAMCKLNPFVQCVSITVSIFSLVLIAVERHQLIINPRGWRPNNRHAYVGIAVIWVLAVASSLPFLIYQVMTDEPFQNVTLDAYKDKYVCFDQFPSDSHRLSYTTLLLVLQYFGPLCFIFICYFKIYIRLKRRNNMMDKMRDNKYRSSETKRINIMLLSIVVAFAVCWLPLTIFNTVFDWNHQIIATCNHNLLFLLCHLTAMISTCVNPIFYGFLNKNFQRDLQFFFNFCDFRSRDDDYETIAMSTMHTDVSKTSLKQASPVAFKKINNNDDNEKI

Substance “NPY(human, rat) control (from UniProt P01303 29-64) (peptide)” has an IC50 of 1.09 nM.
